Results on 44 molecules are retold here after patent US20170056486A1 (IMMATICS BIOTECHNOLOGIES, published 2017).

For the first assay, the target named is T1, HLA-A*02 (human).
T1 construct: Peptide-receptive MHC monomer made by UV cleavage of a UV-sensitive ligand and captured on streptavidin plates; also called HLA-A*02 MHC class I molecule; peptide-receptive MHC
The experiment in a line: UV-exchange ELISA (anti-b2m); yield <20%. From the text: (§1) Candidate peptides for T cell based therapies according to the present invention were further tested for their MHC binding capacity (affinity). The individual peptide-MHC complexes were produced by UV-ligand exchange, where a UV-sensitive peptide is cleaved upon UV-irradiation, and exchanged with the peptide of interest as analyzed. Only peptide candidates that can effectively bind and stabilize the peptide-receptive MHC molecules prevent dissociation of the MHC complexes. To determine the yield of the exchange reaction, an ELISA was performed based on the detection of the light chain (β2m) of stabilized MHC complexes. The assay was performed as generally described in Rodenko et al. (Rodenko et al., 2006).
(§2) 96 well MAXISorp plates (NUNC) were coated over night with 2 ug/ml streptavidin in PBS at room temperature, washed 4× and blocked for 1 h at 37° C. in 2% BSA containing blocking buffer. […] Peptide-MHC monomers of the UV-exchange reaction were diluted 100 fold in blocking buffer. Samples were incubated for 1 h at 37° C., washed four times, incubated with 2 ug/ml HRP conjugated anti-β2m for 1 h at 37° C., washed again and detected with TMB solution that is stopped with […]. Absorption was measured at 450 nm.
Regarding SSLEPQIQPV, the peptide exchange yield is below 20%.
GAVAEEVLSSI displayed a peptide exchange yield below 20%.
AQTVVVIKA: the peptide exchange yield was below 20%.
TLSSERDFAL returned a peptide exchange yield below 20%.

A further assay has as its target T1, HLA-A*02. The experiment in a line: UV-exchange ELISA (anti-b2m); yield 50%-75%.
From the text: as §1, §2
For orientation: ELISA stands for enzyme-linked immunosorbent assay.
The molecule KVLGKIEKV registered a peptide exchange yield of 50 to 75%.
With GRADALRVL, the peptide exchange yield lay within 50 to 75%.

In another assay the target is T1, HLA-A*02. The experiment in a line: UV-exchange ELISA (anti-b2m); yield 20%-49%.
From the text: as §1, §2
Consider IASAIVNEL, for which the peptide exchange yield was in the range of 20 to 49%.
On the same count and under the same terms, in the case of ILDETLENV it was 20 to 49%; in that of GLMDGSPHFL, 20 to 49%.
On the same count and under the same terms, for HLPDFVKQL the value was 20 to 49%; for FLGDYVENL, 20 to 49%; for FAWEPSFRDQV, 20 to 49%.
Consider GVLKVFLENV, for which the peptide exchange yield is 20 to 49%.
The same measure, in the same setting: for GLIYEETRGV the value was 20 to 49%; for VLLAAGPSAA, 20 to 49%.
The same measure, in the same setting: for GLSSSSYEL the value was 20 to 49%.
YVLPKLYVKL: the peptide exchange yield fell in the range of 20 to 49%.
In turn, PLWGKVFYL displayed a peptide exchange yield of 20 to 49%.
For the molecule LLRGPPVARA, the peptide exchange yield was in the range of 20 to 49%.
On the same count and under the same terms, in the case of FLIDTSASM it was 20 to 49%; in that of IQADDFRTL, 20 to 49%.
For RLLPKVQEV (also called ZNF-003), the peptide exchange yield lay in the range of 20 to 49%.
Take GVIETVTSL: the peptide exchange yield is 20 to 49%.
Consider SVAKTILKR, for which the peptide exchange yield was 20 to 49%.
Same read-out and setting: for KTLDVFNIIL the value was 20 to 49%; for HLYNNEEQV, 20 to 49%; for LLDHLSFINKI, 20 to 49%.
Same read-out and setting: in the case of VLFLGKLLV it was 20 to 49%.
For EYALLYHTL, the peptide exchange yield lay within 20 to 49%.
In turn, TLDHKPVTV had a peptide exchange yield of 20 to 49%.
Still for that read-out and setting: in the case of GLLWQIIKV it was 20 to 49%; in that of KILDLTRVL, 20 to 49%; in that of VLLRVLIL, 20 to 49%.
On the same count and under the same terms, for LLYDGKLSSA the value was 20 to 49%; for VLGPGPPPL, 20 to 49%.
The molecule ALDDSLTSL had a peptide exchange yield of 20 to 49%.
VLISSTVRL registered a peptide exchange yield of 20 to 49%.
As for SVDSAPAAV, the peptide exchange yield was in the range of 20 to 49%.

For the next assay, the target named is T1, HLA-A*02. The assay is described as follows: UV-exchange ELISA (anti-b2m); yield >=75%.
From the text: as §1, §2
Molecule AIFDFCPSV showed a peptide exchange yield of at least 75%.
Consider ALSDETKNNWEV, for which the peptide exchange yield is at least 75%.
Same read-out and setting: for KLYGIEIEV the value was at least 75%; for SLVPLQILL, at least 75%.
As to MLSDLTLQL, the peptide exchange yield was at least 75%.
The molecule SLYHRVLLY returned a peptide exchange yield of at least 75%.
